Data set [1] has as its target T1, Lin28a delta-delta (terminal truncations and 9-residue linker deletion) (Mus musculus, UniProt Q8K3Y3 SEQ:4-151).
T1 chain: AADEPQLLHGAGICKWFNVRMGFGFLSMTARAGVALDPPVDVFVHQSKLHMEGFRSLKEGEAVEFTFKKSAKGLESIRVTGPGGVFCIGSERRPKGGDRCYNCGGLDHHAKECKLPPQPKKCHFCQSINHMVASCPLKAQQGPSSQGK
Put plainly: structure; crystal structure 2.8 A, Zn. Conditions: tags: His6 removed by TEV; domain-swapped dimer in crystal); stem-loop with 3' single-stranded GGAG. How it is done: (§1) Crystals of all three complexes were produced by vapor diffusion, using the hanging drop method. Concentrated complexes (10 mg/mL) were mixed 1 μL:1 μL with reservoir solution, and crystals grew overnight. Reservoir solution contained 0.6M NaH₂PO₄, 1.4M K₂HPO₄ and 5% glycerol for preEM-let-7d and preEM-let-7f-1 complexes; for preEM-let-7g, it contained 0.1M Tris pH 8.0, 32% w/v PEG 4000, and 0.2M Sodium Acetate. Crystals were harvested with mother liquor supplemented with 20% glycerol and frozen in liquid nitrogen. Diffraction data was indexed and scaled using XDS (Kabsch, 2010) and SCALA (Evans, 2006) in a workflow provided by autoPROC (Vonrhein et al., 2011). Experimental phases were obtained for Lin28:pre-let-7d complex by anomalous scattering from zinc atoms (SAD), using HKL2MAP (Schneider and Sheldrick, 2002) and AutoSol (Terwilliger et al., 2009). The structures of Lin28: preEM-let-7f-1 and Lin28: preEM-let-7g were solved by molecular replacement with Lin28: preEM-let-7d as search model using Phaser (McCoy et al., 2007). Density modification and NCS averaging over 6 or 2 copies were performed with PHENIX (Adams et al., 2010) to obtain electron density maps for model building with COOT (Emsley and Cowtan, 2004) and PHENIX was used for further refinement. […]

For data set [2], the target named is T1, Lin28a delta-delta (terminal …). Put plainly: EMSA; probe is a pre-let-7f-1 fragment. Conditions: tags: His6 removed by TEV; domain-swapped dimer in crystal); label: 5'-32P. A general note: Mobility shift assays separate free from complexed probe on a gel.
Data set [3] has the same target. Put plainly: EMSA; 9-residue linker deletion supports binding; slightly lower affinity than full-length suggested. Conditions: tags: His6 removed by TEV; domain-swapped dimer in crystal); label: 5'-32P; stem-loop with 3' single-stranded GGAG. The text has this:
FIG. 2. Linker between CSD and CCHCx2 is flexible. See also FIG. 9. (A) Longitudinal (R1) and transverse (R2) relaxation rates and the ratio (R2/R1), plotted against the residue number. Relatively more dynamic regions are marked with a light yellow box. (B) Alignment of internal deletions in the linker, indicated with the number of amino acids deleted on left (SEQ ID NOS 84-87, respectively, in order of appearance). (C) EMSAs with preE-let-7d as probe, mixed with increasing concentrations (0.005, 0.02, 0.08, 0.3, 1.2, 5, 20 μM) of linker deletion constructs of Lin28(16-184): *, free probe; **, complex. (D) Quantitative RT-PCR results for in vivo levels of mature let-7g. Lin28Δ is truncated at both N and C termini. Lin28ΔΔ has both of the terminal extensions and the linker removed. The standard deviation is calculated from triplicate experiments; U6 RNA levels were used for normalization. (E) and (F) Western blots of Trizol bottom layer for transfections shown in (D).

The next data set deals with T2, Lin28a full-length (Mus musculus, UniProt Q8K3Y3 Q8K3Y3:1-209).
T2 sequence: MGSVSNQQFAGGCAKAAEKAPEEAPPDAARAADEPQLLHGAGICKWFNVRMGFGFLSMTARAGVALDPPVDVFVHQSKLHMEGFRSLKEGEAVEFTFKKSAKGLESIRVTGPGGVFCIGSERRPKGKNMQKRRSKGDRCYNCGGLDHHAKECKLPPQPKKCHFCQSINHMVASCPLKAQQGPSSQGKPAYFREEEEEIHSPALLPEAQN
Put plainly: EMSA. Conditions: tags: His6 removed by TEV; label: 5'-32P; stem-loop with 3' single-stranded GGAG. The protocol: (§2) FIG. 9. Domain mapping and structural analysis of Lin28 protein, Related to FIG. 2. (A) EMSA of Lin28 truncations. […] Full-length preE-let-7d was used as probe, titrated with protein constructs indicated (left to right: 8 nM, 33 nM, 130 nM, 520 nM, 2.1 μM, 8.3 μM, 33.3 μM). (B) ¹⁵N-NOESY of the linker region. Homonuclear 1H/1H NOE spectral strips belonging to the residue numbers marked in red were taken from a 3D 15N-selected NOESY-HSQC, and only the amide region is shown for inter-residue backbone NOEs. Diagonal peaks are marked with a diagonal line and crosspeaks are marked with a cross. The linker region is missing inter-residue NOEs, while CCHC has amide-amide interactions evident from crosspeaks. (C) Plot of secondary shifts for Ca, CP, and C′ vs. residue number. Domain boundaries, consistent as in FIG. 2A, are marked with dashed grey lines. (D) EMSA of protein linker deletion constructs. Increasing amounts of protein (Lin28 35-187, with or without 9-residue internal deletion in the linker region) were added to radioactively labeled fragment of pre-let-7f-1 indicated. The concentrations of protein in each lane are as follows: 5 nM, 20 nM, 78 nM, 313 nM, 1.2 μM, 5 μM, 20 μM. (E) In vivo processing assay of pri-miR-122 and pri-miR-16, similar to main FIG. 2D. 293T cells (12 well) were co-transfected with Lin28 (100 ng) with pri-miR-122 or pri-miR-15-16 (750 ng). […]

Data set [4] has as its target T3, Lin28a (16-184), CSD-linker-CCHCx2 (Mus musculus, UniProt Q8K3Y3 SEQ:4-172).
T3 chain: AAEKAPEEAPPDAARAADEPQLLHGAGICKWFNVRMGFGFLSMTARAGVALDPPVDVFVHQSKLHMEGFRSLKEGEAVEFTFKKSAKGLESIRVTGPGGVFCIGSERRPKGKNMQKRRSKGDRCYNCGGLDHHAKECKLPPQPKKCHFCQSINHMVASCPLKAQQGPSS
Put plainly: EMSA; comparable affinity to full-length; Kd bins only in figure; 20 mM Tris 7.5, 100 mM NaCl, 50 uM ZnCl2, yeast tRNA. Conditions: tags: His6 removed by TEV (GSG remnant); label: 5'-32P; stem-loop with 3' single-stranded GGAG. The protocol:
as §2

For data set [5], the target named is T1, Lin28a delta-delta (terminal …). Put plainly: structure; crystal structure 2.0 A, Zn. To be noted: tags: His6 removed by TEV; domain-swapped dimer in crystal); stem-loop with 3' single-stranded GGAG. The protocol:
as §1

Data set [6] has the same target. Kind of data set: structure; crystal structure 2.9 A, Zn. To be noted: tags: His6 removed by TEV; domain-swapped dimer in crystal); stem-loop with 3' single-stranded GGAG. The protocol:
as §1

Another data set deals with T4, Lin28b (Homo sapiens, UniProt Q6ZN17 Q6ZN17:1-250).
T4 sequence: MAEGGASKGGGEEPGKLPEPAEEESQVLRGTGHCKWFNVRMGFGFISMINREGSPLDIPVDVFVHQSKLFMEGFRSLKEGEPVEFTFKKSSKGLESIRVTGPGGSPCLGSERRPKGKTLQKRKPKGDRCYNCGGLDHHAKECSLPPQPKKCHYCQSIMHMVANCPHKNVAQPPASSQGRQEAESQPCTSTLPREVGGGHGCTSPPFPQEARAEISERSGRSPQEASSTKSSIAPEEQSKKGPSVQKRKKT
Put plainly: EMSA; effects of preEM point mutations equivalent to mouse Lin28a. To be noted: stem-loop with 3' single-stranded GGAG.

The next data set deals with T5, Lin28a (Homo sapiens, UniProt Q9H9Z2 Q9H9Z2:2-209).
T5 sequence: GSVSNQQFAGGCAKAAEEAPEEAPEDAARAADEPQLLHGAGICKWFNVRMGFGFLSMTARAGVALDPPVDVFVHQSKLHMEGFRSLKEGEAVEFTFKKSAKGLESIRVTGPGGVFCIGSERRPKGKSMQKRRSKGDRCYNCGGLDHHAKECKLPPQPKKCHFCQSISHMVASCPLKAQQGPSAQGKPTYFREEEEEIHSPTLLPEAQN
The description is as above. Conditions: stem-loop with 3' single-stranded GGAG.

In data set [7] the target is T3, Lin28a (16-184), CSD-linker-CCHCx2. Put plainly: EMSA; minimal preE, sufficient for high-affinity binding; complex also studied by NMR. To be noted: tags: His6 removed by TEV (GSG remnant); stem-loop with 3' single-stranded GGAG.

As to GGGGUAGUGAUUUUACCCUGGAG (ssRNA) [preEM-let-7f-1], in [1], the binding result is “binds”.
On to GUGGGGUAGUGAUUUUACCCUGUUUAGGAGAU (ssRNA) [preE-let-7f-1], for which the binding result in [2] is recorded as “binds”.
Take UUAGGGCAGAGAUUUUGCCCACAAGGAGUU (ssRNA) [preE-let-7d]: the binding result (in data set [3]; with Lin28a full-length; in data set [4]) was “binds” each time.
As for GGGGUCUAUGAUACCACCCCGGAG (ssRNA) [preEM-let-7g], the binding result in data set [5] was “binds”.
As for GGGCAGAGAUUUUGCCCGGAG (ssRNA) [preEM-let-7d], the binding result (in data set [6]; with Lin28b; with Lin28a; in [7]) was “binds” throughout.
